Assay results: publication PMC3035050 (Molecular microbiology, 2008)
Numbering of substitutions follows the chain as printed.

T1: B. stearothermophilus primase DnaG H494A (B. stearothermophilus, UniProt Q9X4D0 1-597, H494A)
T1 sequence (looked up): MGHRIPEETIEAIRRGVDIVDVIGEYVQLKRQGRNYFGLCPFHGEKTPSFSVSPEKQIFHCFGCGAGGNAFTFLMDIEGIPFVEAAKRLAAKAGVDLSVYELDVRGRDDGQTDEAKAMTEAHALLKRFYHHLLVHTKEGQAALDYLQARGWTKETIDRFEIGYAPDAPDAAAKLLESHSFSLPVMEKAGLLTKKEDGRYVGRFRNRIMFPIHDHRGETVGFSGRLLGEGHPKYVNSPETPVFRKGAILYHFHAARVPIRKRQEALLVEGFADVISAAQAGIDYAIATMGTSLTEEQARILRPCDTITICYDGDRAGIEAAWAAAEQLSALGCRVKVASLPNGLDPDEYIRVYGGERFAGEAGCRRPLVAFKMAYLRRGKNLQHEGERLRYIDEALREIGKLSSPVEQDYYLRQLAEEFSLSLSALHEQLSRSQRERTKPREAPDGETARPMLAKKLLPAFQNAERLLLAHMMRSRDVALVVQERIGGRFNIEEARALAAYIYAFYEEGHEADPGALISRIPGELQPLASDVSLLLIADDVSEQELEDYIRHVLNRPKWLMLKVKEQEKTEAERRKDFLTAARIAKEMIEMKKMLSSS

T2: B. stearothermophilus primase DnaG E464G (B. stearothermophilus, UniProt Q9X4D0 1-597, E464G)
T2 sequence (looked up): T1 sequence (looked up) with E464G, A494H

T3: B. stearothermophilus primase DnaG R495A (B. stearothermophilus, UniProt Q9X4D0 1-597, R495A)
T3 sequence (looked up): T1 sequence (looked up) with A494H, R495A

T4: B. stearothermophilus primase DnaG R555A (B. stearothermophilus, UniProt Q9X4D0 1-597, R555A)
T4 sequence (looked up): T1 sequence (looked up) with A494H, R555A

B1: Bacillus stearothermophilus primase DnaG (native) (enzyme, B. stearothermophilus, UniProt Q9X4D0 1-597, looked up)
chain: T1 sequence (looked up) with A494H
B2: Bacillus stearothermophilus replicative helicase DnaB (native) (enzyme, B. stearothermophilus)
chain: MSELFSERIPPQSIEAEQAVLGAVFLDPAALVPASEILIPEDFYRAAHQKIFHAMLRVADRGEPVDLVTVTAELAASEQLEEIGGVSYLSELADAVPTAANVEYYARIVEEKSVLRRLIRTATSIAQDGYTREDEIDVLLDEADRKIMEVSQRKHSGAFKNIKDILVQTYDNIEMLHNRDGEITGIPTGFTELDRMTSGFQRSDLIIVAARPSVGKTAFALNIAQNVATKTNENVAIFSLEMSAQQLVMRMLCAEGNINAQNLRTGKLTPEDWGKLTMAMGSLSNAGIYIDDTPSIRVSDIRAKCRRLKQESGLGMIVIDYLQLIQGSGRSKENRQQEVSEISRSLKALARELEVPVIALSQLSRSVEQRQDKRPMMSDIRESGSIEQDADIVAFLYRDDYYNKDSENKNIIEIIIAKQRNGPVGTVQLAFIKEYNKFVNLERRFDEAQIPPGA

Key:
[1] = biological target: Bacillus stearothermophilus replicative helicase DnaB (native) (B. stearothermophilus) (UniProt Q9X4C9); assay: ITC
[2] = biological target: B2; assay: ITC
[3] = biological target: T1, B. stearothermophilus primase DnaG H494A; assay: ITC
[4] = biological target: T2, B. stearothermophilus primase DnaG E464G; assay: ITC
[5] = biological target: B1; assay: ITC
[6] = biological target: T3, B. stearothermophilus primase DnaG R495A; assay: SEC
[7] = biological target: T4, B. stearothermophilus primase DnaG R555A; assay: SEC

## B. stearothermophilus primase DnaG Y548A (from UniProt Q9X4D0 1-597) (enzyme)
[1]
  Kd: 83.3 nM
  stoichiometry N: 0.509

## B1
[2]
  dH: 17.8 kcal/mol
  stoichiometry N: 0.287

## B2
[3]
  Ka: 1.18e+08 M⁻¹
  Kd: 8.5 nM
[4]
  Ka: 1.18e+08 M⁻¹
  Kd: 8.5 nM
[5]
  Ka: 1.42e+08 M⁻¹
  Kd: 7.04 nM
[6]
  binding result: binds
[7]
  binding result: binds
